Assay results taken from US12708677B2, “Contrast agents, methods for preparing contrast agents, and methods of imaging” (Georgia State University Research Foundation, Inc., priority 2008, dated 2026).
Several values for one entry are separate records, joined by “and”; a condition that tells them apart may be missing. Identical values can stand only once.

Legend:
AU565 cells = assay: Cell binding by immuno-fluorescence staining; assay type: cell-based; details: 37 and 4° C.
From the text: We first examined whether the designed CA1.HER2/Affi can target cancer cells by cell binding analyses. We used two cancer cell lines for the binding analyses. AU565 is derived from breast carcinoma. EMT6 is a mouse mammary tumor cell line. AU565 cells express very high levels of HER2. The EMT is regarded as a HER2 negative cell line. Binding of the Gd-CA1.HER2/Affi to the cancer cells was first analyzed by immuno-fluorescence staining using a polyclonal antibody against PEGylated parental protein CA1.CD2 (PAbPGCA1).

[1] = Water coordination number by terbium life time luminescence; assay type: physicochemical
Method: Measurement of Water Coordination Number by Terbium Life Time Luminescence. The number of water ligands coordinated to Gd^3+-CA1.CD2 complex was determined by measuring Tb^3+ luminescence decay in H2O or D2O. Tb^3+ excited state lifetime was measured using a fluorescence spectrophotometer (Photon Technology International, Inc.) with a 10 mm path length quartz cell at 22° ° C. Following excitation at 265 nm with a XenoFlash (Photon Technology International, Inc.), Tb^3+ emission was monitored at 545 nm in a time series experiment in both H2O and D2O systems. Luminescence decay lifetime was obtained by fitting the acquired data with a mono-exponential decay function. H2O in CA1.CD2 solution was replaced with D2O by lypholization and re-dissolved in D2O at least three times. A standard curve correlating the Δkobs with water number under our experimental conditions was established by using well-characterized chelators, such as EDTA (q=3), DTPA (q=1), NTA (q=5), and Aquo Tb^3+ (q=9) solution with R^2=0.997.^26,27 Water number coordinated to Tb^3+-CA1.CD2 complex was then obtained by fitting the acquired Δkobs value to the standard curve.
The numbers of water ligands coordinated to Gd^3+-CA1.CD2 and variants complex were determined by measuring Tb^3+ luminescence decay in H2O or D2O (Yang et al., 2008). Tb^3+ excited state lifetime was measured using a fluorescence spectrophotometer (Photon Technology International, Inc.) with a 10 mm path length quartz cell at 22° C. Following excitation at 265 nm with a XenoFlash (Photon Technology International, Inc.), Tb^3+ emission was monitored at 545 nm in a time series experiment in both H2O and D2O systems. Luminescence decay lifetime was obtained by fitting the acquired data with a mono-exponential decay function. H2O in CA1.CD2 solution was replaced with D2O by lypholization and re-dissolved in D2O at least three times. A standard curve correlating the Δkobs with water number under our experimental conditions was established by using well-characterized chelators, such as EDTA (q=3). DTPA (q=1), NTA (q=5), and Aquo Tb^3+ (q=9) solation with R^2=0.997.^26, 27 Water number coordinated to Tb^+-CA1.CD2 complex was then obtained by fitting the acquired Δkobs value to the standard curve.

CD-1 mice = assay: Mouse MR imaging; assay type: in vivo
Method: (§1) Mouse MR Imaging. Care of experimental animals was in accordance with institutional guidelines. CD-1 mice (25-30 g, four mice were imaged) were anesthetized with an isoflurane gas mixture. The anesthetized animal was positioned and stabilized with soft-supporting material (e.g., foam) in the scanner in the coil cradle and was kept warm during the MRI scan. The mice were scanned prior to the administration of any contrast agent (pre-contrast). Approximately 50 μl of Gd-CA1.CD2 (~1.2 mM) or Gd-DTPA (~300 mM) were injected into the animal via the tail vein. MR images were collected at different times (indicated). For T1 weighted imaging at 3T, spin echo sequence with TE/TR=15 ms/500 ms was employed. Rectangular Field of View (FOV) at 100/40 mm, an acquisition matrix of 196^2 and 1.1 mm slice thickness without gap were used. Images were collected from both transverse and coronal sections. The in-plane resolution of images was less than 0.5 mm after they were reconstructed to the matrix of 196^2. For T2 weighted imaging at 9.4T, MR images were recorded using a multi-echo Carr-Purcell-Meiboom-Gill (CPMG) sequence. The data were collected and processed by Dicomworks software. The MR signal intensity in several organs was ascertained by the average intensity in ROIs or points within the organs. Signal intensity for each organ was normalized to that of the leg muscle.
as §1, with “Care” for “Mouse MR Imaging. Care”, “(e.g.” for “(e.g.,”

B1: CA1.CD2: designed Gd^3+-binding protein, domain 1 of rat CD2 with ligand residues Glu15, Glu56, Asp58, Asp62, Asp64 (protein)
chain: RDSGTVWGALGHGIELNIPNFQMTDDIDEVRWERGSTLVAEFKRKMKPFLKSGAFEIDANGDLDIKNLTRDDSGTYNVTVYSTNGTRILNKALDLRILE
binding to AU565 cells (AU565 cells): did not bind to either of the tested cultured cells | hydration number (water number in the coordination shell) [1]: 2.1 and 2 | Tb^3+ life time ([1]; in D2O): 1,679 μs | Tb^3+ life time ([1]; protein complex in H2O): 859 μs

B2: Gd-CA1.CD2: CA1.CD2 in complex with Gd^3+ (protein)
chain: RDSGTVWGALGHGIELNIPNFQMTDDIDEVRWERGSTLVAEFKRKMKPFLKSGAFEIDANGDLDIKNLTRDDSGTYNVTVYSTNGTRILNKALDLRILE
MRI contrast enhancement, T1 weighted spin echo (CD-1 mice; 3T, ~2.4 μmole Gd/kg via tail vein): greatest enhancement of the MRI contrast observed in the kidney | T2 contrast enhancement (CD-1 mice; 9.4T): strong T2 contrast enhancement | T1 contrast enhancement in the kidney cortex (CD-1 mice; 18 hours after administration): diminished substantially | duration of contrast enhancement at multiple organs (CD-1 mice; mouse, in vivo): 4 to 7 h
